Results as given in the RNAGym collection of RNA variant scans (doi:10.1073/pnas.2313332121).
This sample holds only a part of the variants without activity.

B1: TPR 5TU (parent)
chain: GGAUCUUCUCGAUCUAACAAAAAAGACAAAUCUGCCACAAAGCUUGAGAGCAUCUUCGGAUGCAGAGGCGGCAGCCUUCGGUGGCGCGAUAGCGCCAACGUUCUCAACUAUGACACGCAAAACGCGUGCUCCGUUGAAUGGAGUUUAUCAUG

Variants of: B1
Experiment: polymerase ribozyme fitness, log enrichment relative to wild type (log ratio); higher = more active; in vitro selection for triplet polymerase activity
Procedure, shortened: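 PCR was used to build mutant libraries for each subunit of a heterodimeric triplet polymerase ribozyme, which were then transcribed. A single in vitro selection round, in triplicate, used a frozen incubation at −7 °C and recovered extended constructs by gel excision, streptavidin beads and RT-PCR. Fitness is the logarithm of genotype enrichment relative to wild-type enrichment, averaged over replicates with inverse-variance weights. The logarithm is base 2, and after Illumina sequencing only genotypes with ≥10 input reads and ≥1 read per output were kept.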

Variant | polymerase ribozyme fitness (log ratio)
A40C C51A G86C U139C | ≤ -4.2
G59A G70U C93G A113U | ≤ -4.2
A20U A52C C54U G88U A107U C116A | ≤ -4.2
U9A A20C A23U U31G A47C G50U G58A C85U A91C | ≤ -4.2
G50U G86U | -1.71
G94U C129G A147U | ≤ -4.2
G94A G124A A150U | 0.987
U127G G141A | -3.27
U6C A21U U55A G58A G86A | -3.18
C51U G81C C87U C116A G124A U134A U148A | ≤ -4.2
A17G C76U | -0.119
A16C G112U A150U | ≤ -4.2
U56A C85G | -2.44
C87G G92C C125U U127G U135G G141C | ≤ -4.2
G11A A23U A39U U53G C54U C93U A122U A142G | ≤ -4.2
A47C C54U G84A U109G | -1.84
U53A C54A A147C | -2.75
C149G | -2.78
U31G A37C G126U | -2.65
A12G C57G G59A C96U U127G | -3.86
A26C C32A U53G U56A C75U U104A U111C A120G | ≤ -4.2
C5G U55A | -0.729
A12G C69G A89U C96G U104A | -2.98
G46A C54A C76U G143A | ≤ -4.2

Variant | polymerase ribozyme fitness (log ratio)
A19U C38U A49C G58C C79U G88A A97C | ≤ -4.2
A52G A73U G84A | -2.15
A23C C75G C103U | ≤ -4.2
C57A C85A | -1.28
G92U G133U | -3.41
U9G A17U G94A | ≤ -4.2
C131G | -2.79
U45A C85A C93U C96U C118A C132A | ≤ -4.2
C5U G84U U148G | ≤ -4.2
U31A A73U C95G | -3.66
U55G A97G | 0.0201
G59A C85U U102G A106C G141A | ≤ -4.2
U6A G11U A23C G25A C36A G50C C125U | ≤ -4.2
C96U U148A | -3.33
A29G U33C G141A U145A | ≤ -4.2
A47G C96U G124C | -1.06
U55A U102G | -4.04
C5A C85U G86C A119C A120C | -3.07
U55A A122G | -0.237
A39U C69A G74C C76U C87A | ≤ -4.2
A66G U90G C93G | ≤ -4.2
A49C G141A | -3.79
A22C C54U G84U U104G C114G G133U | ≤ -4.2
A28U A66C C72U A91C C114U | ≤ -4.2

Variant | polymerase ribozyme fitness (log ratio)
A24G C75A A113U | ≤ -4.2
U4A G48A C85A C93A A147C | ≤ -4.2
C54A C99A G141U | -2.47
C38U U55C A64U G94A C103A C125U | ≤ -4.2
A21C C32G G48A A122G G126U | ≤ -4.2
A12G C85A | -1.31
A12U A20G U56A C75G A121G | ≤ -4.2
U6C C95U A98U C99U | -2.4
A26G G81A C95U | ≤ -4.2
C85G G126A U146A | -1.79
U31A C54A G84A C96U C132U | -3.31
G84A U144G | 0.394
C43A A52G C69U A91U C96U A106U | ≤ -4.2
A21U A91G | -2.85
G59U G68A G83A A89U G94U G128U | ≤ -4.2
A20C A21G A23C A28U C38A | ≤ -4.2
A39C U82G G83C G133C | ≤ -4.2
U55A A60G | 0.676
A26U C36A G68C G86U G88C | ≤ -4.2
C36U C54G A66C G84U C95A U101G | ≤ -4.2
A30U C32G C54A C57G C99U A107G | ≤ -4.2
A22G C108U | -4.08
A12U U31C C32U A40U C57G A73G C75A G88A G152A | ≤ -4.2
A21U C118U A119G | -3.17

Variant | polymerase ribozyme fitness (log ratio)
G59U C69G | -1.07
A24U G34U A47C C95G C108A A110G A138C A147C G152A | ≤ -4.2
A22C U55G A60G U101A C118G | -0.937
U55A C72U C79A A107G | ≤ -4.2
A16U A47C | -2.04
U15A A19U C57G G86A | -1.7
C51U A89G C99U A150G | -3.67
A16G U33G G81A C87G G100A | ≤ -4.2
A40U U55A G86A G133U | ≤ -4.2
G58A C85G G100U U144A | ≤ -4.2
U55A G117A | -0.438
U56A U82G | 0.243
G59A C125A | 0.12
C93U G141C | -1.55
A40G C95A U104G A142G | -3.8
A40C C87U | -0.91
A28U G48A G74C C96U C131A | ≤ -4.2
U55A A60G C69U G92U A147U | -0.244
G11A A17C A49C C85U A91U G136U | ≤ -4.2
A3U A23U C96U | ≤ -4.2
U109G C116G | -0.501
C32A A41C G94U C103A C118U | ≤ -4.2
A52C U55G | -3.84
A47C G86A C149U | -1.64

Variant | polymerase ribozyme fitness (log ratio)
G86U C108U | -4.14
A20G G34C C38A C76U U90C C114U | ≤ -4.2
C27A C63A G80C C85G A119C U144A | ≤ -4.2
C18A A22C A23U A37C C72U G88A C125U U146G | ≤ -4.2
A39G G88C A91U G136U | ≤ -4.2
C93G U145G | -2.53
U15G C18U U56C G83A C87U | -1.58
C14G A91U G143U | -3.88
C85U C103U | -2.17
G34U C75G G81U C87U A120U | -3.98
C85U C132U | -0.776
C72G A89G G92A C114G | ≤ -4.2
A26U C96U C116G | -1.18
U33G A60G C85A A97U A142C | ≤ -4.2
U4C G11A C57A C96U G124A A150C | ≤ -4.2
C8U A26U A120G C125U | ≤ -4.2
A22U A49G C54U C85U | -0.721
G83U C87G C99U | ≤ -4.2
C93G G94U C95A G128A | ≤ -4.2
U7A C8G U13G U90G C95G U134A | ≤ -4.2
U13G C14G U31A A41C G86A U90G G100A C131A | ≤ -4.2
C85A G92U G117U | -2.26
G94C U145G | -0.944
C14G C18U C57U G65A G83A A106C G117U | ≤ -4.2

Variant | polymerase ribozyme fitness (log ratio)
C5U C8U A23C C85U C103A C116U | ≤ -4.2
U53G C72G C108G C116A | ≤ -4.2
A39U C76A G83U C125U | ≤ -4.2
C54G C95U U127G | ≤ -4.2
A16U C57A C99G U104C | -3.73
A22U G59A A66U G86A A120G A138G | ≤ -4.2
C75U C85A | -1.84
C14U U56A | -1.8
C79U A150C | ≤ -4.2
A24U U82G G83C | -1.55
C14G A20U C76A | -3.92
U7A A60G C85U U144C | -3.61
C54U A106G | -0.0717
A23G A64G G81A C108A G124U G143U | ≤ -4.2
U55A G83U | -1.69
A16U A19U C103G | -4.18
A3C A28G A37U A52U G83U | ≤ -4.2
C69U C96G C125U | -1.78
C99U A147G | -2
U53G U55A C79U G86A G88A C103U U148C | ≤ -4.2
A41U C95U C99U G141C | -2.51
G59A U82C U134A | -2.59
A3C U6A C35A C95U U102C C103G G143U | ≤ -4.2
A24C G34A C87A G126U | -4.18

Variant | polymerase ribozyme fitness (log ratio)
A26G A40C C63U G80U G92A G126U A142U | ≤ -4.2
A26U A49U A137G | ≤ -4.2
A24U G58A C79G A91U C118A G141C | ≤ -4.2
A37U A52G G83A G84A A115U | ≤ -4.2
A22U U55A A115C C123U U130G | -2.84
G94A C123G U146G | -1.05
G25U C35G A40G A47U A91C A107G G133C | ≤ -4.2
A24U A39U C96A C99G U130C C131G | ≤ -4.2
A12U C27A A52C G71C C105U | ≤ -4.2
U13C A26C A52C | -3.55
A29G C93G A115U C116G C149G | ≤ -4.2
U44A C75G C96U | -4.08
A47G A52U G68U C79A C93U C99A G141C A142G G143U | ≤ -4.2
C27G C72A C96A A107U | ≤ -4.2
U135G A137U | -4.04
U4C G48U A49C G68A C79G C105A | ≤ -4.2
C51A U82G C96U G143C | ≤ -4.2
C54G G92C A106G | -2.99
A39U A107G G140C | ≤ -4.2
G83U A98C A115G | -1.62
A40C C85U G133C A142G | -3.92
A12C G50C G65A C76G G83U | ≤ -4.2
A37G A64G G80A G88U G143A | ≤ -4.2
